Measurements from US20240148890A1 (SUTRO BIOPHARMA, published 2024).

Molecular target: folate receptor alpha (FOLR1) (human, UniProt P15328 25-234)
Test: cell-based or functional assay

Sequence of folate receptor alpha (FOLR1) (P15328 25-234 limits assumed): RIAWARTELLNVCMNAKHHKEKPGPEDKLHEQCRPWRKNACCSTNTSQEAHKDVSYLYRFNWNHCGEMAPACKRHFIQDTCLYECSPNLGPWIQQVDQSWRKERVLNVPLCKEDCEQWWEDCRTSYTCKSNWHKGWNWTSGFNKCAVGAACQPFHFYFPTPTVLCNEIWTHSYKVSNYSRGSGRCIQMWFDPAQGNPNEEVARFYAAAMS

B1: Conjugate P (FOLR1-directed site-specific antibody-drug conjugate; IgG antibody with VH region SEQ ID NO: 362 and VL region SEQ ID NO: 367, conjugate formula … (antibody, V domains shown)
VH: EVQLVESGGGLVQPGGSLRLSCAASGFNIRTQSIHWVRQAPGKGLEWIGDIFPIDGITDYADSVKGRFTISADTSKNTAYLQMNSLRAEDTAVYYCARGSWSWPSGMDYYLDYWGQGTLVTVSS
VL: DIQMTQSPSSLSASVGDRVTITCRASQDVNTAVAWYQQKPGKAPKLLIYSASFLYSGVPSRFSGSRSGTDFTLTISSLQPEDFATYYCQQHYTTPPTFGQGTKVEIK
modifications: para-azidomethylphenylalanine residues substituting for Y180 and F404 (printed as 'of each VH region'; elsewhere given as heavy chain positions), each linked to the hemiasterlin linker-payload of conjugate formula P (n=4)
- in vitro cytotoxicity IC50 against CBF/GLIS-transduced CB HPSCs (which upregulate FOLR1): 4.2 nM
- in vitro cytotoxicity IC50 against MV4;11 AML cell line engineered to express FOLR1 (MV4;11 FOLR1+): 0.1 nM
